± gives the uncertainty stated by the source.
Test: protein stability index of a GFP-peptide fusion (yeast GPS) (PSI 1-4); higher = more stable; sorted into four equal gates, so the index is relative within each strain
Conditions: ubr1∆
In short: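 The protein stability index of a peptide was calculated by multiplying its read frequency in each gate by that gate's number and adding the products. The peptides were tiled 17-residue stretches of yeast proteins, fused downstream of GFP on a Cherry-expressing plasmid and carried in yeast as a pooled library. Mid-log cultures in leucine-free medium were sorted into four equal gates by GFP/Cherry ratio, and each gate's plasmids were PCR-amplified and Illumina-sequenced.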

Row | Sequence | protein stability index
1 | FSVRTKDSNKDVVVEGL [RPL10] | 2.77 ± 0.054
2 | FSYQEVEFKLPKELVPS [CDC53] | 1.91 ± 0.047
3 | FTGEKPIITGSTSTSSS [MED8] | 2.13 ± 0.043
4 | FTVDKKIAERSLLLKNY [SKP1] | 3.38 ± 0.27
5 | FVFQTVFDTAITSWYEN [QCR9] | 1.97 ± 0.044
6 | FVIGEQGKPYISLPKGK [RPS4A] | 2.41 ± 0.053
7 | FVKNIRMLSFEDISKAT [RPN9] | 1.93 ± 0.053
8 | FVLLEIEPVTKVSSLKM [YCS4] | 2.35 ± 0.054
9 | FWSFLDSLIFKDSSLNY [YJL039C/NUP192] | 2.46 ± 0.079
10 | FYDYIKERSIVVGRTTR [REC8] | 1.17 ± 0.045
11 | FYGVLDQGNGWLYVYET [RPN6] | 3.02 ± 0.071
12 | FYQQVHKKDRLQYLPLY [SIR4] | 1.67 ± 0.048
13 | GAETDELSMIMEHFSQQ [RPS12] | 3.23 ± 0.089
14 | GAFTIALAYAGTGNNSA [RPN2] | 2.15 ± 0.053
15 | GAGGLNPFTSATSSTNA [YOR098C/NUP1] | 2.94 ± 0.13
16 | GAQFSRSYDLTRHQNTI [RPN4] | 2.53 ± 0.099
17 | GATKIVREHYLRSDIPC [DIS3] | 2.43 ± 0.054
18 | GCENPADVFRRCLVAVI [SRP72] | 1.98 ± 0.077
19 | GCLIKNLPRTKAKSVVN [RMP1] | 2.13 ± 0.12
20 | GCLNFVDENDEVLLAGF [RPS23A] | 1.27 ± 0.068
21 | GDANNRWDKEEYQSLMS [SMC1] | 3.21 ± 0.073
22 | GDDEATEIISTLSNGLI [BRR2] | 3.11 ± 0.21
23 | GDFGGWFCPCHGSHYDI [RIP1] | 3.18 ± 0.082
24 | GDKEATAPLIQRKNKKN [RPN8] | 3.15 ± 0.18
25 | GDPALVYKFMSLAKSSA [ECM29] | 3.09 ± 0.054
26 | GDYGSAKCNSLLQLKYF [POP5] | 2.59 ± 0.071

Row | Sequence | protein stability index
27 | GEAEAEKEEEEAKEESD [RPP1A] | 3.52 ± 0.14
28 | GEICKNYELEKIADNIS [YDL116W/NUP84] | 3.09 ± 0.061
29 | GELGEIRALQPKLKEGA [YIL149C/MLP2] | 3.36 ± 0.093
30 | GEMVGVLAAQSIGEPAT [RPO21] | 2.58 ± 0.088
31 | GENAAEKPDNSNHNNLN [SNF2] | 3.21 ± 0.035
32 | GENDDDTLDGDLMDDMS [RPN3] | 2.15 ± 0.1
33 | GEVVYLRKQKDSSTTSS [ITC1] | 2.23 ± 0.081
34 | GGADQVTRTQQWSMVAQ [SWI1] | 3.07 ± 0.052
35 | GGKSVGFGLVYNSVAEA [RPS24A] | 2.84 ± 0.054
36 | GGLKNGVLYQGNIQISE [DIS3] | 3.17 ± 0.065
37 | GGQIAHILFQNNPDMMI [ROX3] | 2.97 ± 0.046
38 | GGSATARHKKKVENLDY [YML031W/NDC1] | 3.62 ± 0.29
39 | GGTNEDDFTDAIQFVKE [YCS4] | 3.69 ± 0.19
40 | GHEELKRRIEEEQEKIN [ISW2] | 3.35 ± 0.055
41 | GHIPWHILAVKKMMNTL [SSN2] | 1.1 ± 0.16
42 | GIEHFDIPPPAIMKPYY [RPO31] | 2.91 ± 0.099
43 | GIFLHGKIPTLKISLIQ [PRP8] | 1.78 ± 0.029
44 | GIRAPKGALMYGPPGTG [RPT5] | 1.32 ± 0.11
45 | GISDDENDEEDIYMHDV [RRP4] | 3.46 ± 0.12
46 | GISDMCRLFFTELASKD [YCS4] | 2.61 ± 0.078
47 | GISRDIKALQDSLFKDV [YML103C/NUP188] | 1.77 ± 0.042
48 | GKHNLTIWCVCDSYLDA [BRR2] | 2.31 ± 0.045
49 | GKICLILTRLNGILPDD [SSN2] | 3.5 ± 0.15
50 | GKILLKGDNITLITSAD [SME1] | 3.2 ± 0.053
51 | GKIVGFDEFMNVVIDEA [SME1] | 3.39 ± 0.05
52 | GKIVSQRGKWNLKYLDN [RGR1] | 2.17 ± 0.06

Row | Sequence | protein stability index
53 | GKKSSSSTKDYLTPPHE [RET1] | 2.85 ± 0.18
54 | GKLWKDVKARIAAGDGD [QCR9] | 2.37 ± 0.098
55 | GKMNNEVSTSTSMTGDA [SWI3] | 3.15 ± 0.053
56 | GKQAIGAIAYNQFKRID [RET1] | 2.28 ± 0.14
57 | GKSEKLSLLLVEDKIPL [SKI6] | 3.27 ± 0.12
58 | GLALQLFKKLKEENDEG [RPN2] | 3.41 ± 0.096
59 | GLAPDARVLSNYLRQQC [PRE5] | 1.47 ± 0.28
60 | GLARKFHNMLQTLYTGD [SSN3] | 2.79 ± 0.16
61 | GLEVGPVVQVGIFIKIL [IRR1] | 2.47 ± 0.059
62 | GLGVNRRILAAAAAAAA [SSN3] | 1.95 ± 0.069
63 | GLRAVRKNRYVILQSDL [RPT3] | 3.31 ± 0.14
64 | GLSIHPTQITQYTQRLS [SRP68] | 2.13 ± 0.071
65 | GMIYNKLFVSKEHAPYT [FAS2] | 2.41 ± 0.1
66 | GNDFKFNYQGDELVLNF [REC8] | 3.17 ± 0.047
67 | GNLSKREIQIDAVLKIF [SRB8] | 2.68 ± 0.049
68 | GNPYIELNQDRLGGDDL [SNF5] | 3.27 ± 0.049
69 | GNSERPSAVAGFINQKN [YIL149C/MLP2] | 3.03 ± 0.051
70 | GNSKDDLLDMIQFGAKN [ISW2] | 2.92 ± 0.093
71 | GNVLINDTLPDEISPEL [SNU114] | 2.71 ± 0.17
72 | GPAAAKPMAFSNTTTHV [MTR3] | 3.27 ± 0.036
73 | GPHKGKAPRILSTGRKF [RPL18A] | 2.92 ± 0.13
74 | GPSATDPETTATQKESL [RGR1] | 2.21 ± 0.048
75 | GQAIVVHPDYLYGAITE [FAS2] | 1.79 ± 0.04
76 | GQLLKDHLIIEPEEEKS [ARP9] | 1.71 ± 0.038
77 | GQLPQLPKLNLPKYQTI [SNF5] | 2.71 ± 0.047
78 | GQSSVKHEDFVEGISEV [RPT5] | 3.41 ± 0.2

Row | Sequence | protein stability index
79 | GRDAFHLRVRVHPFHVL [RPL10] | 2.09 ± 0.048
80 | GRDKHALSLLYHLLNYD [SSN3] | 3.04 ± 0.064
81 | GREGIWSKTIKARTNLH [RPC34] | 1.51 ± 0.29
82 | GRICRPLIIVSDGQSRV [RET1] | 2.16 ± 0.038
83 | GRIPLHWSVSFQAHEIT [NAS6] | 2.69 ± 0.037
84 | GRKVLQKVQGESHIDSR [SIR4] | 3.27 ± 0.09
85 | GRNIGHPIIQDKEGNGV [RPB3] | 3.15 ± 0.13
86 | GRNRGRPNRRGPRNTEE [RPS2] | 3.45 ± 0.083
87 | GRRISENGQRDLDRIAA [RPS19A] | 3.45 ± 0.17
88 | GSAELRNSYPASFYSVN [RPN3] | 3.55 ± 0.092
89 | GSEIAISSLGYRSHIFA [SWI3] | 2.34 ± 0.045
90 | GSIEEPELNVSLNLTDD [MCD1] | 3.39 ± 0.04
91 | GSIPVDQVVVRGIDTLQ [RPB3] | 2.5 ± 0.048
92 | GSIQKGMPHKFYQGKTG [RPL21A] | 2.51 ± 0.28
93 | GSIRVHKSGKLSVKIGN [RPC53] | 1.69 ± 0.04
94 | GSKLEDMSKILVDQGFN [RET1] | 3.29 ± 0.049
95 | GSKQADRMAKYLHIRDK [PGD1] | 3.14 ± 0.071
96 | GSLNATNFSPTPANNGE [SNF2] | 3.04 ± 0.051
97 | GSLTFLDNKGSGEDAEE [YIL149C/MLP2] | 3.46 ± 0.071
98 | GSMFSGDNTSDVDMEDR [RRI1] | 2.85 ± 0.16
99 | GSNQKPKYEPPVQSKFG [RPT2] | 3.09 ± 0.099
100 | GSQILSGVMDKSVLGDG [RPO31] | 3.55 ± 0.067
101 | GSSAGMNGRSLTYAQQQ [SNF6] | 3.24 ± 0.044
102 | GSSNKAVVQTVKGLLNT [YJL039C/NUP192] | 3.07 ± 0.098

From the supplement of paper PMC9732359
